One may read the Kd as the concentration at which binding is half-saturated.

The experiment deals with polymerization-deficient p62 PB1 domain D69A/D73A (human) (UniProt Q13501). The experiment in a line: ITC.

The substance “human NBR1 PB1 domain, residues 1-85 (ITC) (from UniProt Q14596 1-85) (domain or fragment)” returned a Kd of 12.6 nM.
